Test results taken from paper PMC6128628, “Impaired hepatic amyloid-beta degradation in Alzheimer’s disease” (PLoS ONE, 2018).

Test: Degradation of fluorescein-labeled Aβ spiked into human liver homogenates (ELISA)
Assay type: in vitro ADME
Conditions: fluorescein-labeled peptide from DMSO stock diluted to 0.4 μg/ml, 5 μl added, 37°C, stopped on ice with protease inhibitor cocktail
Description: Frozen liver (~500 mg) was ground into a powder in liquid nitrogen with a mortar and pestle then transferred to 8 ml sucrose lysis buffer (SLB: 20 mM HEPES, 1.5 mM magnesium chloride, 10 mM potassium chloride, 40 mM sucrose, 1 mM EDTA, 2% glycerol, 0.5% sodium deoxycholate, 1% Tergitol, pH 7.9) at 4°C. The tissue was then homogenized using an Omni TH tissue grinder (Kennesaw, GA) at 4°C. The homogenates were centrifuged at 15,000 x g in a Type 50.4 Ti rotor (Beckman Coulter, Brea, CA) for 20 min at 4°C and the supernatant was collected. Total protein was determined with Pierce’s Micro BCA protein assay kit (Thermo Fisher Scientific, Waltham, MA).
Lyophilized fluorescein-labeled Aβ40 and Aβ42 peptides (FAβ, rPeptide, Bogart, GA) were reconstituted in DMSO to 1 mg/ml and stored at 4°C [22]. For degradation experiments, the stock peptides were diluted to 0.4 μg/ml (1:2500) in sucrose lysis buffer (SLB), 5 μl of either FAβ40 or FAβ42 was added to the reaction mixtures and samples were incubated at 37°C for 1 h or 2 h (for ELISA and Western experiments). In addition, two 0 h incubations were included: one liver homogenate with 5 μl of FAβ as well as a negative control sample without FAβ. Reactions were terminated by placing homogenates on ice and by adding SLB with complete protease inhibitor cocktail (PIC, Roche, Mannheim, Germany). Reactions used for Western blots were stopped by 2XLDS sample buffer (Invitrogen) containing 100 mM dithiothreitol.
All 4 sample sets were analyzed in triplicate with Aβ40 and Aβ42 ELISAs (Invitrogen; catalog # KHB3481 and KHB3441 following the manufacturer’s instructions. Similar sets of samples were analyzed for FAβ by Western blot (as described below) with an anti-fluorescein antibody (Table 2) which binds to both to both free and bound fluorescein.

Row | Substance | Aβ degraded within an hour, AD group (postmortem human liver homogenate from Alzheimer's disease subjects (n = 8) in sucrose lysis buffer pH 7.9, 1 h, Aβ40 ELISA in triplicate, p<0.05 vs ND) | Aβ degraded within an hour, ND group (postmortem human liver homogenate from non-demented controls (n = 8) in sucrose lysis buffer pH 7.9, 1 h, Aβ40 ELISA in triplicate, p<0.05 vs AD) | Aβ degraded within 2 hours, AD group (postmortem human liver homogenate from Alzheimer's disease subjects (n = 8) in sucrose lysis buffer pH 7.9, 2 h, Aβ42 ELISA in triplicate, p = 0.07 vs ND) | Aβ degraded within 2 hours, ND homogenates (postmortem human liver homogenate from non-demented controls (n = 8) in sucrose lysis buffer pH 7.9, 2 h, Aβ42 ELISA in triplicate, p = 0.07 vs AD)
1 | Aβ40: synthetic fluorescein-labeled amyloid beta 40 peptide (rPeptide), spiked into liver homogenates | 23% | Thirty-four |  | 
2 | Aβ42: synthetic fluorescein-labeled amyloid beta 42 peptide (rPeptide), spiked into liver homogenates |  |  | 80% | 94%
